For the test, the target named is T1, EV A71 VLP (Enterovirus A71, UniProt Q66478 2-862).
T1 construct: Multi-subunit particle
T1 sequence: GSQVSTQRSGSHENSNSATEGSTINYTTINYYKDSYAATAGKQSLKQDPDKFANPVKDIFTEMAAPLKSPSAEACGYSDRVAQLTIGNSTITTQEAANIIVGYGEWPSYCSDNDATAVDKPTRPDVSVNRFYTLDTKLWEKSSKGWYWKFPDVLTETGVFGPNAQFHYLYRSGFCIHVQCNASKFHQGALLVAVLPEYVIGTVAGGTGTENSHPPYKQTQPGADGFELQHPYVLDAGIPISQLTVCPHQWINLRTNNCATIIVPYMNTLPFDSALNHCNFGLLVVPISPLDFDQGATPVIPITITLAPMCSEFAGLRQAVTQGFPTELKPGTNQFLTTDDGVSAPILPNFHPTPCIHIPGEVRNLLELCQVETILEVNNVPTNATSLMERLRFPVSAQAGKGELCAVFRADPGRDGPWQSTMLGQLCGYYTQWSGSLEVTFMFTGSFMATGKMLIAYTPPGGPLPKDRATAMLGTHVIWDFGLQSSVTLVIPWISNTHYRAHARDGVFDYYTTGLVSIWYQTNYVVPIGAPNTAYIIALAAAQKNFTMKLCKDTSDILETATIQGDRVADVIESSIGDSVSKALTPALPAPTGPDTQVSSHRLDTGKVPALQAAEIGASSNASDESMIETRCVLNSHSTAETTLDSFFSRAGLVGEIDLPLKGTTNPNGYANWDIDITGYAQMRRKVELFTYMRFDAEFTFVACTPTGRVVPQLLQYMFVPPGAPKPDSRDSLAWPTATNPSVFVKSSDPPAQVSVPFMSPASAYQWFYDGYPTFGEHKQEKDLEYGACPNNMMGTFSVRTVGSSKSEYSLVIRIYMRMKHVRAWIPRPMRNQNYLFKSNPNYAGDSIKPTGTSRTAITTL
Description: Western blot on denatured VLP. On the technique in general: In western blotting, separated proteins are transferred to a membrane and probed.

B1: 单克隆抗体3C4 (antibody, mouse IgG1, kappa, V domains shown)
VH: QVTLKESGPGILQPSQTLSLTCSFSGFSLSTSGMGVSWIRQPSGKGLEWLAHIWWDDDKRYNPALKSRLTISKDTSNNQVFLRIASVDTADTATYYCVRIGGYFWGQGTSVTVSS
VL: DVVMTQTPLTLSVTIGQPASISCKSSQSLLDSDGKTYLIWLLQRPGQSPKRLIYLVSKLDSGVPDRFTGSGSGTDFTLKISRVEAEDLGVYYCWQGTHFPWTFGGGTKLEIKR
notes: Mouse IgG1 kappa; also called 3C4单抗; 杂交瘤细胞株3C4
With B1, the binding result was “no binding (tested: 1μg/mL)”.

The values above are taken from patent CN116284353A (HUASONG SHANGHAI BIOMEDICAL TECH CO LTD, dated 2023).
